Source: patent publication US20240358704A1, “COMBINED ADMINISTRATION” (Hoffmann-La Roche Inc., priority 2021, published 2024)

Key:
[1] = test system: delta7 mice; assay: Bone microCT of the tibia (cortical and trabecular parameters); format: in vivo; conditions: GYM329 3 mg/kg SC weekly
Description: Bone microCT scans were performed in tibias collected at PND52. There was no effect of treatment on cortical or trabecular parameters (FIG. 7 & FIG. 8).

[2] = test system: delta7 mice; assay: Body weight and muscle weights at PND52 in pharmacological mouse model of SMA; format: in vivo
Text: The mouse model of SMA (pharmacological model) that has been used in the preclinical trial herein is the delta7 mice treated with a sub-maximal dose of the SMN-upregulating compound SMN-C1 as described in Naryshkin et al, Science 345, 688-693, 2014. […] The advantage of this model is that it has a more severe phenotype than existing mild models but lives into adulthood, which enables testing SMA treatments after disease onset. […] (1) a monotherapy, (2) as a combination therapy with an SMN-upregulating compound administered at the onset of disease, and (3) in a mild model of SMA was don. Dosing of the myostatin inhibitor began at PND24 and continued for 28 days until PND52. In all of these models, GYM329 was administrated once per week at 3 mg/kg (4 subcutaneous injections). A cohort of wild type (WT) littermates treated with the vehicle was included as a reference group. At the study's conclusion, in vivo muscle force frequency, muscle weight, muscle histopathology, bone morphometry, and voluntary running were assessed.
The pharmacological model was generated by treating delta7 mice [FVB.Cg-Tg(SMN2*delta7)4299Ahmb Tg(SMN2)89Ahmb, homozygous knockout mice completely lacking mouse Smnl] with a dose of an SMN-upregulating compound, SMN-C1. For CH1 and CH2, the mice were given a suboptimal dose of SMN-C1 (0.1 mg/kg daily) for the duration of the study. For CH3 and CH4, mice were given a suboptimal dose of SMN-C1 (0.1 mg/kg daily) from PND1-23 and switched to a higher dose (3 mg/kg daily) from PND24-52. For CH5 and CH6, mice were treated with a higher dose of SMN-C1 (3 mg/kg daily) for the duration of the study. Wild type (WT) mice [FVB.Cg-Tg(SMN2*delta7)4299Ahmb Tg(SMN2)89Ahmb, homozygous for the mouse Smnl gene] were used as a reference.
Statistical analysis was performed using SigmaPlot v11. Muscle performance data were analyzed using a two-way repeated measures ANOVA. Post-hoc analysis for pairwise comparisons was performed with a Holm-Sidak test. Body weights, muscle weights, muscle fiber typing data, and cortical and trabecular bone data were analyzed using a one-way ANOVA, with post-hoc analysis performed with a Holm-Sidak test. Data
Body weights were taken daily for SMA mice and weekly for WT mice.

[3] = test system: delta7 mice; assay: Plantarflexor histology: muscle fiber typing and cross-sectional area; format: in vivo; conditions: GYM329 3 mg/kg SC weekly
Description: Plantarflexor (gastrocnemius, plantaris, and soleus) samples frozen for histology were embedded in cryomatrix on a soft cork surface to enable easy sectioning. Briefly, frozen and embedded tissues were mounted in a cryotome and serially sectioned (10 μm thickness) perpendicular to the fiber axis. Multiple slices (5-10) were taken at different portions of the muscle. The slices were then fixed in ice-cold paraformaldehyde and stored at −80° C. until further use.
For cross-sectional area determination, fixed sections from the mid-belly of the muscle were stained with wheat germ agglutinin (WGA) conjugated to a fluorophore to visualize cell membranes. Sections were digitized using fluorescent microscopy, cell boundaries were traced using predictive software, and cross-sectional area was determined via unbiased automated measurements. For muscle fiber type determination, histological slices were taken from the mid-belly of the soleus and the gastrocnemius muscle. The fixed tissue sections were then blocked using SuperBlock PBS blocking buffer (Thermo Fisher) for 1 h at room temperature. The slide was then washed with PBS and covered with a primary antibody against either MyHC-I, MyHC-IIa, or MyHC-IIb (1:20 dilution; Developmental Studies Hybridoma Database) and incubated overnight at 4° C. The slide was then washed with PBS and the appropriate secondary antibody added for 1 h at room temperature. The slide was washed again in PBS, covered in mounting solution, and a coverslip used to seal the tissue section for fluorescence microscopy measures. Fluorescently-labeled tissue sections were digitized using a fluorescence microscope (Nikon). Images were then analyzed for number of cells using standard counting software.

[4] = test system: delta7 mice; assay: In vivo plantarflexor muscle function (maximum torque, force frequency response); conditions: PND52
Description: Hind limb muscle performance was measured in vivo with a 305C muscle lever system (Aurora Scientific Inc., Aurora, CAN). Mice were anesthetized via inhalation (˜4-5% isoflurane, or to effect) and placed on a thermostatically controlled table where anesthesia was maintained via nose-cone (˜2% isoflurane, or to effect). Hair was removed from the lower leg by application of depilatory cream for 3 minutes, followed by thorough rinsing
with physiological buffer. The leg was then wiped with a 5% povidone-iodine solution followed by 70% isopropyl alcohol. The knee was isolated using a pin through the tibial head and the foot firmly fixed to a footplate on the motor shaft. Contractions were elicited in the gastrocnemius by percutaneous electrical stimulation of the sciatic nerve.
(§1) On both muscles, a force frequency response was performed. Briefly, a series of stimulations were performed at increasing frequency of stimulation (0.2 ms pulse, 500 ms train duration): 1, 10, 20, 40, 60, 80, 100, and 150 Hz, followed by a final stimulation at 1 Hz.
(§2) Muscle function data were analyzed using Aurora Scientific 615A Dynamic Muscle Analysis Software Suite in high-throughput mode. The software automatically determines a baseline, a maximum, and a minimum. The baseline is then subtracted from the maximum to give the maximal generated force. Each data file was manually inspected to ensure that cursors and fits were assigned properly and corrected when necessary. Data were then grouped and means and standard error of the mean (SEM) calculated. In the plantarflexor muscle group, results were presented as torque, expressed in the unit mN·m, since the assay measures the force produced by the gastrocnemius rotating about the ankle. Force was directly measured in the masseter, expressed in the unit gram.

[5] = test system: delta7 mice; assay: In vivo masseter muscle function (maximum force, force frequency response); conditions: GYM329 3 mg/kg SC weekly, PND52
Text: To assess masseter function, the mouse was anesthetized via inhalation (˜4-5% isoflurane, or to effect) and placed on a thermostatically controlled table where anesthesia was maintained via nose-cone (˜2% isoflurane, or to effect). The mouse was placed supine with custom designed restraint to ensure accessibility of the jaw for testing. The lever arm of the 305C muscle lever system (Aurora Scientific Inc., Aurora, CAN) was positioned in the diastema of the mandible and a suture was run under the middle lower incisors of the mouse and attached to the lever arm. The masseter was contracted by electrical stimulation using surface electrodes.
as §1, §2

[6] = Tolerability study in healthy adult subjects; format: in vivo, human; conditions: at AUC of 385 μg×d/mL
[7] = PND52, delta 7 mice + low dose SMN-C1 (0.1 mg/kg PND1-52)
[8] = delta 7 mice + high dose SMN-C1 (3 mg/kg PND1-52)
[9] = delta 7 mice + low to high dose SMN-C1 (0.1 mg/kg PND1-23, 3 mg/kg PND24-52)
[10] = delta 7 mice + high dose SMN-C1 (3 mg/kg PND1-52), GYM329 3 mg/kg SC weekly, PND52, vs SMA Vehicle
[11] = delta 7 mice + high dose SMN-C1 (3 mg/kg PND1-52), vs SMA Vehicle
[12] = delta 7 mice + low dose SMN-C1 (0.1 mg/kg PND1-52)

B1: GYM329: anti-myostatin antibody binding latent myostatin; CDRs SEQ ID 1-6, VH SEQ ID 7, VL SEQ ID 8, heavy chain SEQ ID 9, light chain SEQ ID 10 (antibody)
heavy: QVQLVESGGGLVQPGGSLRLSCAVSGIDLSHDDISWVRQAPGKGLEWVSIISYAGSTYYASWAKGRLTISKDTSKNQVVLTMTNMDPVDTATYYCARGVPAYSHGGDLWGQGTLVTVSSASTKGPSVFPLAPSSKSTSGGTAALGCLVKDYFPEPVTVSWNSGALTSGVHTFPAVLQSSGLYSLSSVVTVPSSSLGTQTYICNVNHKPSNTKVDKKVEPKSCDKTHTCPPCPAPEYLGGDSVFLFPPKPKDVLMISRTPEVTCVVIDVSHEDPEVKFNWYVDGVEVHNAKTKPREEQYNSTYRVVSVLPVLHRDWLNGKEYKCKVSNKALPKPIEKTISKAKGQRREPQVYTLPPSREEMTKNQVSLTCLVKGFYPSDIAVEWESNGQPENNYKTTPPVLDSDGSFFLYSKLTVDKSRWQQGNVFSCSVLHEALHAHTTRKELSLSP
light: DIVMTQSPATLSLSPGERATLSCTTSQSVYHENWLSWFQQKPGQPPKLLIYWASTLAYGVPSRFSGSGSGTDFTLTISSLQPEDAATYYCAGGYGGGRYAFGQGTKVEIKRTVAAPSVFIFPPSDEQLKSGTASVVCLLNNFYPREAKVQWKVDNALQSGNSQESVTEQDSKDSTYSLSSTLTLSKADYEKHKVYACEVTHQGLSSPVTKSFNRGEC
modifications: CDR sequences
- Cortical bone parameters [1, 7]: no effect
- Trabecular bone parameters [1, 7]: no effect
- Bone volume (trabecular) [1, 8]: improved
- Cortical cross-sectional thickness [1, 8]: improved
- Mean total cross-sectional bone area (cortical) [1, 8]: improved
- Trabecular number [1, 8]: improved
- Trabecular separation [1, 8]: improved
- Trabecular thickness [1, 8]: improved
- Cross-sectional thickness in cortical bone [1, 9]: improved
- Mean total cross-sectional bone area in cortical bone [1, 9]: improved
- Trabecular bone parameters [1, 9]: no effect
- Body weights [2, 10]: significantly increased
- Gastrocnemius weight [2, 10]: significantly increased
- Soleus weight [2, 10]: significantly increased
- TA weight [2, 10]: significantly increased
- Body weight ([2]; delta 7 mice + low dose SMN-C1 (0.1 mg/kg IP QD PND1-52), GYM329 3 mg/kg SC weekly from PND24, vs SMA Vehicle): not significantly increased
- Gastrocnemius weight ([2]; delta 7 mice + low dose SMN-C1 (0.1 mg/kg PND1-52), GYM329 3 mg/kg SC weekly, PND52, p=0.061): trend for increased
- Muscle weights ([2]; delta 7 mice + low dose SMN-C1 (0.1 mg/kg PND1-52), GYM329 3 mg/kg SC weekly, PND52, vs SMA Vehicle): did not significantly affect
- Muscle weights ([2]; delta 7 mice + low to high dose SMN-C1 (0.1 mg/kg PND1-23, 3 mg/kg PND24-52), GYM329 3 mg/kg SC weekly, PND52): not affected
- Muscle fiber types [3, 8]: no significant differences
- Mean fiber cross-sectional area [3, 11]: increased
- Type IIB fiber cross-sectional area [3, 11]: increased
- Muscle fiber cross-sectional area [3, 12]: no differences
- Muscle fiber type percentages [3, 12]: no differences
- Muscle fiber cross-sectional area [3, 9]: not affected
- Muscle fiber type composition [3, 9]: not affected
- Plantarflexor muscle function (maximum torque) ([4]; delta 7 mice + high dose SMN-C1 (3 mg/kg PND1-52), GYM329 3 mg/kg SC weekly): not significantly affected
- Plantarflexor muscle function (maximum torque) ([4]; delta 7 mice + low dose SMN-C1 (0.1 mg/kg PND1-52), 3 mg/kg SC weekly, main effect p=0.078 vs SMA Vehicle): trend for improvement
- Plantarflexor muscle function (maximum torque) ([4]; delta 7 mice + low to high dose SMN-C1 (0.1 mg/kg PND1-23, 3 mg/kg PND24-52), GYM329 3 mg/kg SC weekly): no effect
- Masseter maximum force ([5]; at 80, 100, and 150 Hz, delta 7 mice + high dose SMN-C1 (3 mg/kg PND1-52), vs SMA Vehicle): increased
- Masseter function ([5]; delta 7 mice + high dose SMN-C1 (3 mg/kg PND1-52), main effect p=0.048 vs SMA Vehicle): improved
- Masseter function (maximum force) ([5]; delta 7 mice + low dose SMN-C1 (0.1 mg/kg PND1-52), vs SMA Vehicle): no effect
- Masseter function (maximum force) [5, 9]: no effect
- Tolerability [6]: well-tolerated
